Results taken from the DeepSol protein solubility set.

experiment: soluble on expression in E. coli; label from the status in PepcDB or PDB records

Soluble on expression in E. coli, not soluble:
MKSYQPKSLLNDLQYYITPPHDCSYLDNKSARMVFLDPIHRIDVVTLSELSRVGFRRSGDFVYRPECHLCRQCLSCRVPVHDFNMNSLQKKAWKRNQDLRMSIVPTHAATSVHYQLYERYINERHADGDMFPPSLDQFEKFLVHSCTESFFLELWKDDRLICVSTCDLMDDGLSAVYTFFDPDENRRSLGVFAILKQLEYVKSIDLDYLYLGYWVPHSQKMNYKSQYIPLELLLDGQWRRLNRALSQEEISQLGESLMTILPSEWNSMIIKLEHHHHHH
MKTKNEPKVILELAKESDLPEFQKKLQEAFAIAVIETFGDCEDGPIPSDNDVQESFNAPGAVVYHILQDGKNVGGAVVRINSQTNHNSLDLFYVSPEYHSQGIGLSAWKAIEAQYPDTVLWETVTPYFEKRNINFYVNKCGFHIVEFYNEHHSNPHMHRNGREDDKPLLNDDDFFRFVKIMKKKD
MKTKQTIAASTLALAMIAGANSAHAEVNDATPQQSTGDRLAEIKQHKQGLDAKLQQHKENVDQTLNELNKVKENVDTKVNELHERKQVADEKINEIKQHKQELDAKLQQDKQIAEDKIAEIKEHKKQVEDKVAEVKEHKQNIDNKVNEIKEHKQTVDEKVNEMKQHKENIDQKVNELKEVKKQVDEKLAELKKAKQTAEDKLAELKENKPNTGNTLEELKKIKSNLDSLSANLELAKQDVKNKLAALQEARQDLINKINEIKQSKQTVSDDLSKKKQDLDIKINDFKHTEKKIDDKLAEIHTTKQNIDNKINEVSQSKQTETKTGTTNANNNARELPNAGSKQSNNMALGMLSVLGGILLVTRNKIKTLFSK
MKTLVHLSDLHFGKTESHLVDAIAAEVRAVDSDLLVVSGDLTQRARKDEFLQARAFLDSLPGPRIVVPGNHDVPLWNVFARAMTPLSRYRRYIEADTDPFYADSEVAVVGINTARSLTIKNGRINVRQLKAATEKFAYMSDDITRIVVTHHPFEGLDLESDDGIVARADLAMDAFSRSGVDIILSGHQHLHRAGSSARRYLIDGYAALLVQAGTAVSSRVRQAANSFNIIRIEHPRISIECRAWQSLQSGFETSASYSFRQGSGGWEPALEHHHHHH
MKTQQREQALAIYQQHQGKITNRAIADTIGVSAKTIGIWKKQDKWKEALFSASKNEQKQRPINNDELNERQRLFCLYYVKSFNATQSAIKAGYSPDSAHVTGSRLLKNEKVAAEIRRIKKEMVNEMFIEAMDVLQVYIKIAFADITDYVTFGKKEVQAVGKSGPLFDEDDNPIMKEISFVDVKDSGLVDGTIVTEAKLGKEGIAIKLADKMKALEKLSLYFDLFPDQFKQKIENEKLKLAKQKAEKTDDSQEPIEIMIKRKERKS
MKTRVVLILALSVCIEAASEVIRARAYIFKAEAGKIPTELIGTIDFDQSGSFLKLNGSVSGLAAGKHGFHIHEKGDTGNGCLSAGGHYNPHKLSHGAPDDSNRHIGDLGNIESPASGDTLISVSDSLASLSGQYSIIGRSVVIHEKTDDLGRGTSDQSKTTGNAGSRLACGTIGTV
MKTSKFTEAQIAFALKQAELGTKVEEVCRKLGISEATFYNWKKKYGGVGPSELRRMRQLEEENTKLKRLVADLSLDKAMLQDVLSKKLAAALEHHHHHH
MKTTPVTPDDLQRSVIAVPPLARHADLTLNPAANQAVLRHLEAGGVRSVMYGGNANFYHVQVSEYAQLLDFLAESAGPDTWVLPSAGPDYGKLMDQAAILRTRDFPTAMLLPMSFPYTDAGLADGIRRFSDAMDRPAVVYIKSSDYLAPATVARLIGEGRIAALKYAVVREDPARDPYLDALLKEVDPRWIVSGIGERPAIVHFRQFGLRSFTSGSVCVAPRGSMRLLHLLHQGDFEAAEQVRAAYIPLEDCRDGISPIRVLHDAVTLAGVADMGPMLPLLSGLDPADRERVAPVARALLAGDRQ
MKTWLTTLILSLSTLGLAHADVATTQQNLKKNFPEIPVSAVNTTPVKGVYEVITEGQIVYTNDDAQYFFVGNLVDPKNQRNLTAERMQQLNKIDVSTLPLNQAIKHVKGNGKRTLYIFSDPDCPYCQRLEKELTAVDNVTIYLFLFPLTTLHPNAETIATQIWCSKNQYQAWQDYLLNHKAPTASQKCSTPIQKNLALGQKLNINGTPTMYLKNGERIAGAMQAGQLNTLLDQAQ
MKVEKFKVLLYLKKSEPDKNGKAPIMGRITLNRTMAQFSCKLSCTPELWNARESRLNGKSRKAVETNEKIERLLLAVHSAFNSLMERKKDFDAAAVRDMFQGNAGIQMTLLKLLDRHNGEMKARVGVDRAPTTLSTYLFTYRTLSEFIKAKFKVSDLAFGQLNEQFIRDYQDFILMEKGHAVDTLRGYLAILKKICRIAYKEGHSEKYHFCHFKLPKQKESTPKALSRENFEKLRDLEIPEKRRSHVITRDLFLFACYTGTAYADVVSITRENLFTDEENNLWLKYRRKKTNYLGRVKLLPEALVLIEKYRDDARMTLFPPQDYHTLRANMKSLRLMAGLSQDLVYHTARHSFASLITLEEGVPIETISKMLGHSNIKTTQIYARVTPKRLFEDMDRFIEATRDLKLIL
MKVEPYRLVVNEHQVNNTNSKENLKIVQLSDLHIKKDFNADRLDKVIQKTNEQNPDFIIFSGDLYDNYSQYNENEAVISKLKSLKAKYGKIAIWGNRDYGGGAVKEYANIMAESDFSLLRNENQVFTLDNGKKILFTGLDDALLGNPQFPSPNQMAETSYDILLTHEPDEVSQYQNKGYELILSGHSHGGQINVPLIPQIQKKATALMSHANNYTGGLYQLGANEKLYVNTGIGTTHLSARFGVAPEIAVLTFLEHHHHHH
MKVFLIGANGQIGQRLVSLFQDNPDHSIRAMVRKEEQKASLEAAGAEAVLANLEGSPEEIAAAAKGCDAIIFTAGSGGSTGYDKTLLVDLDGAAKAIEAAAIAGIKRFIMVSALQAHNRENWNEALKPYYVAKHYADKILEASGLTYTIIRPG
MKVIEFHQVSKWYGQFQALKSISLTVNKGEIVVICGPSGSGKSTLIRTVNGLESIDSGEIIVLPELDERTRRSGKIGMVFQHFNLFPHLTVLENLTLAPIRTLKLSAQEAKERAYHFLQRVKITDQTHKYPIQLSGGQQQRVAIARSLCMQPEILLFDEPTSALDPETINEVLEVMVDLAQDGITMMCVTHEMGFARKVAHRVMFMDEGEILEVGSPEQLFQNPTHPRTQQFLNQILSH
MKVIGINGSPRRAGNTSIMLKTIFEVLEDEGIETELIQVGGTNIKGCRACYACIKNKNSECSTKGDGFNEIFAKMVEADGMILGSPTYFADITPELKALIDRAGFVSRTNGQLFRHKVGASVVSLRRGGGIHAYDSINHLFQICQMFMVGSTYWNLGFGGRDGGEVVNDTEGMENMRDLGHSMAFLLKKLHNLEHHHHHH

Soluble on expression in E. coli, soluble:
MKSYHKELWMEVPSRMDFVNITRDVSRALDESGIREGLCLVNAMHITASVFINDDEPGLHADYKQWLEELAPHNPSHYQHNRTGEDNGDAHHKRQIMGREVVVAVTKGELHLGPWEQIFYGEFDGRRRKRVLIKIIGALEHHHHHH
MKTIYLYKAQIPEGKNKGDNAILITNQTVIDKLEKAAKEDGKSGTQVSTIASKSTTKENQENKIIGYTSTDNLREDNKNIFDIDDLNDEKYDRKIIVSATEEVLEQSNTLQSEEAVVLPAPAKYKASDSTKIAITQEPNLIGIHANEKENEETRKFVNW
MKTLSKQDNTMEWLVKKSCCNKQDNRHVLMLCDAGGAIKMIAEVKSDFAVKVGDLLSPLQNALYCINREKLHTVKVLSASCYSPDEWERQCKVAGKTQ
MKVFIIGAAGGIGNRLSSLLHARGDAVSGMHRNLEQASKITDTGATAVLGDLIHNSTEELAELFRGHDAIVFSAGAHGTGQENTTLIDGAGLRKAADAASAANVSRFILVSAFPESSRGENTTENFEHYMKVKKSADVYLSHTDLDWVIVRPGVLQDEAGDGLVTAGLAINYGNVARDNVAAFIDEALHQPQLSKIIVELTDGSTPVAEAVERLIKLEHHHHHH
